Laboratory results reported in patent publication US20160355583A1 (Novartis, published 2016).
Where two headings read alike, the source gives them in different places.

How the values were obtained:
[1] = target: T1, human BMP9 (BMP9/Growth Differentiation Factor 2 [Homo sapiens], NP_057288) (human, UniProt Q9UK05 320-429, limits assumed); test: blocking ELISA; competitor Type II BMP receptor (ActRIIB, BMPRII)
T1 construct: cell assays use 'recombinant human BMP9 complex'; also called huBMP9; hBMP9
T1 sequence: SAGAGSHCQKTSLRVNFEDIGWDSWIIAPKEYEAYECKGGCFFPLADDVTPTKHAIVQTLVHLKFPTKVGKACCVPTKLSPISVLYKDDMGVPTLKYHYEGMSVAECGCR
Protocol: (§1) Blocking ELISA was used to identify positive clones that can inhibit the interactions between BMP9 and its receptors. Four different recombinant BMP9 receptors can be used: human Alk1-Fc (R&D system, 370-AL-100); human BMPRII-Fc (R&D system, 811-BR-100); human ActRIIA-Fc (R&D system, 340-R2-100); human ActRIIB-Fc (R&D system).
(§2) The blocking activity of antibody sample to specific ligand/receptor combination was measured by ELISA. In brief, 50 ul of receptor at a concentration of 1 ug/ml in coating buffer (PBS) was added into 96 well ELISA plates at 4° C. overnight, followed by washing with PBST one time. ELISA plates were blocked with 200 ul blocking buffer (PBST containing 1% BSA) in each well and then incubated at room temperature (RT) for 1 hour, followed by washing with PBST for 3 times. Diluted antibody sample was mixed with biotinylated human BMP9 (bio-hBMP9 of 1 ug/ml) and incubated at RT for 45 minutes. The mixture of antibody and bio-hBMP9 was added to the plates of 50 ul/well and then incubated at RT for 30 minutes, followed by washing with PBST for 3 times. 50 ul Poly-HRP Streptavidin (Thermofisher, 21140) was added to each well of the plates and incubated at RT for 30 minutes, followed by washing with PBST for 5 times. Finally, 50 ul of TMB reagent (Invitrogen 002023) and 50 ul of 1N HCl (Invitrogen SS01100) were added to each well to stop the reaction. Absorbance of each well was read at 450 nm to get readout OD₄₅₀.

[2] = target: T2, human BMP10 (Bone Morphogenetic Protein 10 Preproprotein [Homo sapiens], NP_055297) (human, UniProt O95393 317-424); test: Table 7 (caption: MSD-SET; Example 6 describes Biacore SPR on immobilised rhBMP10, Fab 31.25-1000 nM)
T2 construct: Bought recombinant protein; also called huBMP10; rhBMP10 (R&D Cat#2926-BP-025)
T2 sequence: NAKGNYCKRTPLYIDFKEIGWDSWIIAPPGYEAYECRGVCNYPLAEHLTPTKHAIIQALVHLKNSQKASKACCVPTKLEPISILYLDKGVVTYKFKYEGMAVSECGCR

[3] = target: T1, human BMP9 (BMP9/Growth Differentiation …); test: cell-based or functional assay
[4] = target: T1, human BMP9 (BMP9/Growth Differentiation …); test: MSD-SET solution equilibrium titration
Protocol: (§3) The amount of free Fab binding sites was determined by transferring the mixtures on antigen-coated plates and a brief incubation. The free Fab was consequently bound to the plate and detected with a detection antibody after a washing step for removing Fab-antigen complexes. The resulting signal was plotted versus the antigen concentration; and the KD was accurately determined by non-linear curve fitting.
(§4) A 22 serial 2ⁿ dilution of the antigens (human BMP9 (GD-43-KS00); cyno BMP9, rat BMP9 (R&D Systems 5566-BP) or mouse BMP9 (iPROT101715)) was prepared in incubation buffer (PBS (Teknova Cat#P0195) containing 0.5% BSA (Sigma Cat#A7906-500G) and 0.02% Tween-20 (VWR Cat#437082Q)). A constant concentration of the Fab was added. A volume of 60 ul of each antigen:Fab mix was distributed in duplicates to a 384-well polypropylene microtiter plate (PP MTP, Greiner Cat#781280). Incubation buffer served as negative control and a sample containing no antigen served as positive control (Bₘₐₓ). The plate was sealed and incubated overnight (O/N) at room temperature (RT).
(§5) A 384-well standard MSD array plate (Meso Scale Discovery Cat#L21XA) was coated with 30 ul/well human BMP9 diluted in PBS as capture agent and incubated O/N at 4° C. After washing for 3 times with 70 ul/well washing buffer (TBS (Teknova Cat#T1680) with 0.05% Tween-20), the plate was blocked with 50 ul/well blocking buffer (PBS with 5% BSA) for 1 hour at RT. After washing, a volume of 30 ul/well of the antigen:Fab mix was transferred from the PP MTP to the coated MSD plate and incubated for 20 min at RT. After an additional wash step, 30 ul of detection antibody (Goat anti-human Fab specific (Jackson Immuno Research Cat#109-005-097) conjugated with MSD SULFO-TAG NHS Ester (Meso Scale Discovery Cat#R91AN-1)) diluted 1:1000 in incubation buffer was added to each well and incubated for 30 min at RT. The MSD plate was washed and 35 ul/well of read buffer (MSD Read Buffer T 4×, Meso Scale Discovery Cat#R92TC-1) was added and then incubated for 5 min at RT. ECL signals were measured with the MSD SECTOR Imager 6000. The data was evaluated with XLfit (IDBS) software following a 1:1 fit model for Fab (according to Piehler et al., 1997).

mouse BMP9 = target: T3, mouse BMP9 (mouse, UniProt Q9WV56 319-428, limits assumed); test: MSD-SET solution equilibrium titration
T3 construct: also called murine BMP9; mouse BMP9 (iPROT101715)
T3 sequence (looked up): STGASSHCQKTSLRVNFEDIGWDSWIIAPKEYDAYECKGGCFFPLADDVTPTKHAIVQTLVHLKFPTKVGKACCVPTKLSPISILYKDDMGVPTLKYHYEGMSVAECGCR
Protocol: as §3, §4, §5

cyno BMP9 = target: T4, cyno BMP9 (cyno, UniProt G7PEU8 320-429); test: MSD-SET solution equilibrium titration
T4 sequence: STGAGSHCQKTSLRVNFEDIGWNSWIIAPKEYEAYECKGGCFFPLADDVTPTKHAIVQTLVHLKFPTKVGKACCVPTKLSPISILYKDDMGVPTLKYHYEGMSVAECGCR
Protocol: as §3, §4, §5

rat BMP9 = target: T5, rat BMP9 (rat, UniProt M0RB87 320-430, The mature growth factor is a disulfide-linked homodimer. One copy of the polypeptide is given.); test: MSD-SET solution equilibrium titration
T5 construct: also called rat BMP9 (R&D Systems 5566-BP); rat BMP9 condition medium
T5 sequence: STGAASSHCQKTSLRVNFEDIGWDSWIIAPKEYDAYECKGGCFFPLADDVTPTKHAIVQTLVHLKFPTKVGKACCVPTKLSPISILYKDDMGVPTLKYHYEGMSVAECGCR
Protocol: as §3, §4, §5

[5] = target: T1, human BMP9 (BMP9/Growth Differentiation …); test: blocking ELISA; competitor Type I BMP receptor (AlkI)
Protocol: as §1, §2

[6] = target: T2, human BMP10 (Bone Morphogenetic Protein …); test: Table 5 (caption: MSD-SET; Example 6 describes Biacore SPR on immobilised rhBMP10, Fab 31.25-1000 nM)
[7] = target: T1, human BMP9 (BMP9/Growth Differentiation …); test: cell-based or functional assay; remark: listed apart in the source
human BMP7 = target: T6, human BMP7 (human, UniProt P18075 293-431); test: table caption: MSD-SET; Example 6 describes Biacore SPR for BMP2, BMP7, BMP10
T6 construct: Bought recombinant protein; also called huBMP7; rhBMP7 (R&D Cat#354-BP-010)
T6 sequence (looked up): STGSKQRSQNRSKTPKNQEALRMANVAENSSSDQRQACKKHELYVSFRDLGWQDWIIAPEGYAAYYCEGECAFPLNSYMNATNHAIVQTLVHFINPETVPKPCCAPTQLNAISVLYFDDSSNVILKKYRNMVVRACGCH

human BMP2 = target: T7, human BMP2 (human, UniProt P12643 283-396); test: as above
T7 construct: Bought recombinant protein; also called huBMP2; rhBMP2 (R&D Cat#355-BM-010)
T7 sequence (P12643 283-396 limits assumed): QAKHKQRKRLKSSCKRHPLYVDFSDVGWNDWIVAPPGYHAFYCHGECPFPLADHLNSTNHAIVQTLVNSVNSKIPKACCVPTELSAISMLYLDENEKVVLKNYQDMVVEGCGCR

B1: Antibody BMP9-9: MOR023796 (antibody, human IgG1, lambda, V domains shown)
VH: QVQLVQSGAEVKKPGSSVKVSCKASGGTFSDYAIHWVRQAPGQGLEWMGGIIPFFGTAYYAQKFQGRVTITADESTSTAYMELSSLRSEDTAVYYCARRIVSDSVAVQYRHAFDPWGQGTLVTVSS
VL: QSVLTQPPSVSGAPGQRVTISCSGSSSNIGSNYVYWYQQLPGTAPKLLIYGNNNRPSGVPDRFSGSKSGTSASLAITGLQAEDEADYYCNAWDTKAYVWVFGGGTKLTVLG
notes: Fully human, phage display
IC50 [1]: ≤ 1 nM | binding result [2]: no binding | RGA IC50 [pM] (HEK293T BRE-Luc reporter gene assay) [3]: 130 pM | Kd [4]: 0.44 nM | Kd (mouse BMP9): 0.42 nM | Kd (cyno BMP9): 0.13 nM

B2: Antibody BMP9-3: MOR023795 (antibody, human IgG1, lambda, V domains shown)
VH: EVQLVQSGAEVKKPGESLKISCKGSGYSFTTYWIGWVRQMPGKGLEWMGIIYPEGSYTTYSPSFQGQVTISADKSISTAYLQWSSLKASDTAMYYCARGKRVDASSFDYWGQGTLVTVSS
VL: QSVLTQPPSVSGAPGQRVTISCSGSSSNIGDNYVSWYQQLPGTAPKLLIYRNNKRPSGVPDRFSGSKSGTSASLAITGLQAEDEADYYCSSTDKEHLVFGGGTKLTVLG
notes: Fully human, phage display
IC50 [1]: ≤ 1 nM | binding result [2]: no binding | RGA IC50 [pM] (HEK293T BRE-Luc reporter gene assay) [3]: 167 pM | Kd [4]: 0.288 nM | Kd (rat BMP9): 0.069 nM | Kd (mouse BMP9): 0.059 nM | Kd (cyno BMP9): 0.262 nM

B3: Antibody BMP9-8: MOR023793 (antibody, human IgG1, kappa, V domains shown)
VH: QVQLVQSGAEVKKPGASVKVSCKASGYTFTSYYMNWVRQAPGQGLEWMGWINPVQGNTNYAQKFQGRVTMTRDTSISTAYMELSRLRSEDTAVYYCARNYFDVWGQGTLVTVSS
VL: DIQMTQSPSSLSASVGDRVTITCRASQTISNFLAWYQQKPGKAPKLLIYAASNLQSGVPSRFSGSGSGTDFTLTISSLQPEDFAVYYCQQLYAESITFGQGTKVEIKR
notes: Fully human, phage display
IC50 [1]: ≤ 1 nM | binding result [2]: no binding | RGA IC50 [pM] (HEK293T BRE-Luc reporter gene assay) [3]: 113 pM | Kd [4]: 0.12 nM | Kd (mouse BMP9): 0.44 nM | Kd (cyno BMP9): 0.24 nM

B4: Antibody BMP9-7: MOR023787 (antibody, human IgG1, lambda, V domains shown)
VH: QVQLVESGGGLVKPGGSLRLSCAASGFTFSSAWMSWVRQAPGKGLEWVGHIKSKTYGGTIDYAAPVKGRFTISRDDSKNTLYLQMNSLKTEDTAVYYCARVGGYYGYGYAFAYWGQGTLVTVSS
VL: SYELTQPLSVSVALGQTARITCSGDNIGDKYVSWYQQKPGQAPVLVIYDDNKRPSGIPERFSGSNSGNTATLTISRAQAGDEADYYCSSTASKSFNVFGGGTKLTVLG
notes: Fully human, phage display
IC50 [5]: ≤ 1 nM | binding result [2]: no binding | RGA IC50 [pM] (HEK293T BRE-Luc reporter gene assay) [3]: 118 pM | Kd [4]: 0.2 nM | Kd (mouse BMP9): 0.74 nM | Kd (cyno BMP9): 0.35 nM

B5: Antibody BMP9-2: MOR022962 (antibody, human IgG1, kappa, V domains shown)
VH: QVQLLESGGGLVQPGGSLRLSCAASGFTFSSYAMSWVRQAPGKGLEWVSITLGTGHTHYADSVKGRFTISRDNSKNTLYLQMNSLRAEDTAVYYCARGSYIIWSALDYWGQGTLVTVSS
VL: DIQMTQSPSSLSASVGDRVTITCRASQDIRSYLNWYQQKPGKAPKLLIYDASNLQSGVPSRFSGSGSGTDFTLTISSLQPEDFATYYCQQSDTSPLTFGQGTKVEIKR
IC50 [5]: ≤ 1 nM | binding result [2]: no binding | RGA IC50 [pM] (HEK293T BRE-Luc reporter gene assay) [3]: 138 pM | Kd [4]: 0.012 nM | Kd (rat BMP9): 0.006 nM | Kd (mouse BMP9): 0.005 nM | Kd (cyno BMP9): 0.018 nM

B6: Antibody BMP9-5: AM1900 (antibody, human IgG1, kappa, V domains shown)
VH: QVQLVQSGAEVKKPGASVKVSCKASGYTFTRYWMHWVRQAPGQGLEWMGEINPSQGGTNYNEKFKSRVTMTVDKSISTAYMELSRLRSDDTAVYYCAIGANYGGLVYWGQGTLVTVSS
VL: EIVLTQSPATLSLSPGERATLSCRASESLDNYGISFMNWFQQKPGQAPRFLIYAASNQGSGIPARFSGSGSGTDFTLTISSLQPEDTAVYFCQQSKEVPRTFGGGTKVEIKR
binding result [6]: no binding | IC50 [1]: ≤ 1 nM | Kd [4]: 0.054 nM | Kd (rat BMP9): 0.046 nM | RGA IC50 [pM] (HEK293T BRE-Luc reporter gene assay) [7]: 100 pM | Kd (human BMP7): 108 nM | Kd (human BMP2): 999 nM
